Reference: patent US10287569B2, “Enzyme for biosynthesis of isoprene and isopentenyl, and mutant thereof” (INSTITUTE OF MICROBIOLOGY, CHINESE ACADEMY OF SCIENCES, priority 2016, dated 2019)

Experiments:
[1] = biological target: T1, alkaliphilic Bacillus sp. N16-5 IspH protein, wild type, SEQ ID NO: 2 (Salipaludibacillus agaradhaerens, UniProt A0A9Q4B1R3); assay: Kinetic parameters of the enzymatic reaction converting DMAPP to isoamylene by wild-type IspH protein; assay type: biochemical; conditions: DMAPP as substrate to produce isoamylene; DMAPP 0-1.0 mM; pH 7.8, 37° C., 1 mM NADPH, ferredoxin/ferredoxin-NADP+ reductase, anaerobic
T1 sequence (A0A9Q4B1R3 1-318): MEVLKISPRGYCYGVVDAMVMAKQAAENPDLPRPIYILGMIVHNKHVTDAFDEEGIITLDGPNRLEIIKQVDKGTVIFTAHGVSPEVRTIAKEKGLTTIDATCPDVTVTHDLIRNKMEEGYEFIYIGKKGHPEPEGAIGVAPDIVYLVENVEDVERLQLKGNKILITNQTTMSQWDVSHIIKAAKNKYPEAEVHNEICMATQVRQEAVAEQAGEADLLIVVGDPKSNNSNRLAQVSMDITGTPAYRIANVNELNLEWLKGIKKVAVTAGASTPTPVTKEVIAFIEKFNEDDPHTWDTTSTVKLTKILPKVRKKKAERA
Method: Under anaerobic conditions, in a sealed 5 ml chromatotube, IspH protein and its mutants were determined for their activity, wherein the reaction system comprised: 150 mM NaCl, 20 mM Tris-HCl (pH 7.8), 2 mM DTT, 1 mM NADPH, 1 mM DMAPP, 20 μM ferredoxin, 5 μM ferredoxin-NADP^+ reductase, and 0.5 μM IspH protein or its mutants (H131N and E133Q) obtained above; the total reaction volume was 500 μl; and the reaction condition was incubation at 37° C. for 1 h.

[2] = test system: plant-derived isoprene synthase (IspS; EC 4.2.3.27); conditions: DMAPP as substrate to produce isoprene; background art; cited from earlier work
[3] = In vitro activity assay using HMBPP as a substrate (headspace gas GC-MS); assay type: biochemical; conditions: for Production of 2-methyl-2-butene or not / Production of 3-methyl-1-butene or not / Isoprene produced in the reaction system: 1 mM HMBPP, 0.5 μM protein, 37° C. 1 h, headspace gas; for Isoprene produced in the reaction system: ferredoxin, FNR, NADPH, anaerobic
Method: (§1) Under anaerobic conditions, in a sealed 5 ml chromatotube, IspH protein and its mutants were determined for their activity, wherein the reaction system comprised: 150 mM NaCl, 20 mM Tris-HCl (pH 7.8), 2 mM DTT, 1 mM NADPH, 1 mM HMBPP, 20 μM ferredoxin, 5 μM ferredoxin-NADP^+ reductase, and 0.5 μM IspH protein or its mutants (H131N and E133Q) obtained above; the total reaction volume was 500 μl; and the reaction condition was incubation at 37° C. for 1 h.
After the reaction, the headspace gas in the chromatotube was collected, and was subjected to gas chromatography-mass spectrometry (GC-MS). In brief, the gas was analyzed by Agilent Technologies 7890B GG/5977A MSD equipped with Agilent HP-PLOT Al2O3/S GC column (25 m, 0.32 mm, 8.00 μm, 7 inch cage), wherein He gas was used as a carrier gas at a flow rate of 2 ml/min. Later, the experimental data of the test sample (peak retention time, peak area, mass spectrogram, etc.) was compared with the experimental data of the standard substance (isoprene, 3-methyl-1-butene and 2-methyl-2-butene) to identify the gas components and perform quantitative analysis.

[4] = Acid treatment of the reaction solution to determine DMAPP (isoprene in headspace gas by GC-MS); assay type: biochemical; conditions: reaction solution of the HMBPP assay, 8M H2SO4, 37° C. 30 min; indicates DMAPP
Method: as §1
In addition, after the reaction, the reaction solution in the chromatotube was also analyzed to determine whether IPP and DMAPP were produced. Since DMAPP can spontaneously produce isoprene under acidic conditions, the amount of DMAPP in the reaction solution can be determined by determining the amount of isoprene produced in the reaction solution under acidic conditions. In brief, under anaerobic conditions, 50 μL reaction solution was put in another 5 ml chromatotube, and diluted with cold water to a volume of 500 μL, and an equal volume of 8M H2SO4 was added; then, the chromatotube was sealed immediately, and incubated at 37° C. for 30 min. After the incubation, the amount of isoprene in the headspace gas was determined by the above-mentioned GC-MS method, to determine whether the reaction solution contained DMAPP or not.

[5] = In vitro activity assay using DMAPP as a substrate (headspace gas GC-MS, kinetic parameters); assay type: biochemical; conditions: 1 mM DMAPP, 0.5 μM protein, 37° C. 1 h
Method: as §1, with “DMAPP,” for “HMBPP,”
After the reaction, the headspace gas in the chromatotube was collected, and was subjected to gas chromatography-mass spectrometry (GC-MS).
In order to determine the kinetic parameters of the wild-type IspH protein, DMAPP at different concentrations (0, 0.1, 0.2, 0.3, 0.4, 0.5, 1.0 mM) was used to repeat the experiment.

[6] = In vitro activity assay using IPP as a substrate; assay type: biochemical
Method: as §1, with “DMAPP,” for “HMBPP,”
In addition, IPP was used as a substrate to repeat the experiment.

## CC(C)=CCOP(=O)(O)OP(=O)(O)O [DMAPP, dimethylallyl pyrophosphate]
[1]
  maximum reaction activity: about 6.2 nmol min^−1 mg^−1
[2]
  Km value: reaches the level of mM

B1: wild-type IspH: IspH protein from alkaliphilic Bacillus sp. N16-5, amino acid sequence SEQ ID NO: 2 (protein)
chain: MEVLKISPRGYCYGVVDAMVMAKQAAENPDLPRPIYILGMIVHNKHVTDAFDEEGIITLDGPNRLEIIKQVDKGTVIFTAHGVSPEVRTIAKEKGLTTIDATCPDVTVTHDLIRNKMEEGYEFIYIGKKGHPEPEGAIGVAPDIVYLVENVEDVERLQLKGNKILITNQTTMSQWDVSHIIKAAKNKYPEAEVHNEICMATQVRQEAVAEQAGEADLLIVVGDPKSNNSNRLAQVSMDITGTPAYRIANVNELNLEWLKGIKKVAVTAGASTPTPVTKEVIAFIEKFNEDDPHTWDTTSTVKLTKILPKVRKKKAERA
modifications: Bacillus sp. N16-5
[3]
  Production of 2-methyl-2-butene or not: yes
  Production of 3-methyl-1-butene or not: yes
  Isoprene produced in the reaction system: 104.4 μg L^−1 OD^−1
[3]; headspace gas in different phases of the HMBPP assay
  activity of converting HMBPP to isoamylene directly: does not have the activity of converting HMBPP to isoamylene directly
[3]; summary of the HMBPP assay
  products formed from HMBPP as a substrate (isoprene, isoamylene, IPP, DMAPP): can use HMBPP as a substrate to produce isoprene, isoamylene, IPP and DMAPP
[4]
  isoprene produced by treating the reaction solution with acid: 696.3 μg L^−1 OD^−1
[5]
  conversion of DMAPP to isoamylene (2-methyl-2-butene and 3-methyl-1-butene): produce isoamylene
[6]
  catalytic activity on IPP: none

B2: IspH-E133Q: IspH mutant, glutamic acid to glutamine at position 133 of SEQ ID NO: 2 (SEQ ID NO: 4) (protein)
chain: MEVLKISPRGYCYGVVDAMVMAKQAAENPDLPRPIYILGMIVHNKHVTDAFDEEGIITLDGPNRLEIIKQVDKGTVIFTAHGVSPEVRTIAKEKGLTTIDATCPDVTVTHDLIRNKMEEGYEFIYIGKKGHPQPEGAIGVAPDIVYLVENVEDVERLQLKGNKILITNQTTMSQWDVSHIIKAAKNKYPEAEVHNEICMATQVRQEAVAEQAGEADLLIVVGDPKSNNSNRLAQVSMDITGTPAYRIANVNELNLEWLKGIKKVAVTAGASTPTPVTKEVIAFIEKFNEDDPHTWDTTSTVKLTKILPKVRKKKAERA
modifications: Mutant protein E133Q
[3]
  Production of 2-methyl-2-butene or not: no
  Production of 3-methyl-1-butene or not: no
  Isoprene produced in the reaction system: 106.4 μg L^−1 OD^−1
[4]
  isoprene produced by treating the reaction solution with acid: 6.1 μg L^−1 OD^−1
